Assay results reported in paper PMC8818041 (Molecular cell, 2021).

Key:
[1] = molecular target: the molecule itself; test: cross-linking
[2] = molecular target: T1, FLAG-tagged Npl4 (S. cerevisiae, UniProt P33755 1-580); test: pull-down
T1 sequence: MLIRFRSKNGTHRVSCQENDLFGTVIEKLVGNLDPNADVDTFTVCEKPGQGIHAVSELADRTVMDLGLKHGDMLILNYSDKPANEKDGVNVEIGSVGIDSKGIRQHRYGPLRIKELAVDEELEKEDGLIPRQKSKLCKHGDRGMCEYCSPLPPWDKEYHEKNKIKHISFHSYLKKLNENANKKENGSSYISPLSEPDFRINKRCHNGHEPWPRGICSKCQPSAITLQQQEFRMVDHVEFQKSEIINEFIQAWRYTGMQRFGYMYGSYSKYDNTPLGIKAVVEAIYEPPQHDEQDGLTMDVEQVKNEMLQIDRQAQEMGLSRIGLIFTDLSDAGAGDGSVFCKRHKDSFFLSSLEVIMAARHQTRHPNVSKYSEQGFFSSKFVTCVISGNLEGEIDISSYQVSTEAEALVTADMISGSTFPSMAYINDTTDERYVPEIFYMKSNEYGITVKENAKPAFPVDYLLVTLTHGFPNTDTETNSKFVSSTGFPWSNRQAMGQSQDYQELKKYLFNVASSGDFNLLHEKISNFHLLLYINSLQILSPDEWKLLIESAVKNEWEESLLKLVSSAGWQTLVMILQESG

B1: Cdc48^2Cys (Cdc48 containing S286C and R333C) (enzyme, S. cerevisiae)
chain: MGEEHKPLLDASGVDPREEDKTATAILRRKKKDNMLLVDDAINDDNSVIAINSNTMDKLELFRGDTVLVKGKKRKDTVLIVLIDDELEDGACRINRVVRNNLRIRLGDLVTIHPCPDIKYATRISVLPIADTIEGITGNLFDVFLKPYFVEAYRPVRKGDHFVVRGGMRQVEFKVVDVEPEEYAVVAQDTIIHWEGEPINREDEENNMNEVGYDDIGGCRKQMAQIREMVELPLRHPQLFKAIGIKPPRGVLMYGPPGTGKTLMARAVANETGAFFFLINGPEVMCKMAGESESNLRKAFEEAEKNAPAIIFIDEIDSIAPKRDKTNGEVERCVVSQLLTLMDGMKARSNVVVIAATNRPNSIDPALRRFGRFDREVDIGIPDATGRLEVLRIHTKNMKLADDVDLEALAAETHGYVGADIASLCSEAAMQQIREKMDLIDLDEDEIDAEVLDSLGVTMDNFRFALGNSNPSALRETVVESVNVTWDDVGGLDEIKEELKETVEYPVLHPDQYTKFGLSPSKGVLFYGPPGTGKTLLAKAVATEVSANFISVKGPELLSMWYGESESNIRDIFDKARAAAPTVVFLDELDSIAKARGGSLGDAGGASDRVVNQLLTEMDGMNAKKNVFVIGATNRPDQIDPAILRPGRLDQLIYVPLPDENARLSILNAQLRKTPLEPGLELTAIAKATQGFSGADLLYIVQRAAKYAIKDSIEAHRQHEAEKEVKVEGEDVEMTDEGAKAEQEPEVDPVPYITKEHFAEAMKTAKRSVSDAELRRYEAYSQQMKASRGQFSNFNFNDAPLGTTATDNANSNNSAPSGAGAAFGSNAEEDDDLYS
modifications: disulfide bridges between neighbouring protomers after oxidation
[1]
  stoichiometry N: 6

B2: Ufd1 (natural protein, S. cerevisiae, UniProt P53044 1-361, looked up)
chain: MFSGFSSFGGGNGFVNMPQTFEEFFRCYPIAMMNDRIRKDDANFGGKIFLPPSALSKLSMLNIRYPMLFKLTANETGRVTHGGVLEFIAEEGRVYLPQWMMETLGIQPGSLLQISSTDVPLGQFVKLEPQSVDFLDISDPKAVLENVLRNFSTLTVDDVIEISYNGKTFKIKILEVKPESSSKSICVIETDLVTDFAPPVGYVEPDYKALKAQQDKEKKNSFGKGQVLDPSVLGQGSMSTRIDYAGIANSSRNKLSKFVGQGQNISGKAPKAEPKQDIKDMKITFDGEPAKLDLPEGQLFFGFPMVLPKEDEESAAGSKSSEQNFQGQGISLRKSNKRKTKSDHDSSKSKAPKSPEVIEID
[2]
  binding result: binds
